This assay has as its target LAP-tagged hMps1 (LAP-Mps1), stably expressed from a BAC (human) (UniProt P33981). The assay is described as follows: fluorescence cross-correlation spectroscopy.
Sequence of UniProt P33981 (P33981 whole entry): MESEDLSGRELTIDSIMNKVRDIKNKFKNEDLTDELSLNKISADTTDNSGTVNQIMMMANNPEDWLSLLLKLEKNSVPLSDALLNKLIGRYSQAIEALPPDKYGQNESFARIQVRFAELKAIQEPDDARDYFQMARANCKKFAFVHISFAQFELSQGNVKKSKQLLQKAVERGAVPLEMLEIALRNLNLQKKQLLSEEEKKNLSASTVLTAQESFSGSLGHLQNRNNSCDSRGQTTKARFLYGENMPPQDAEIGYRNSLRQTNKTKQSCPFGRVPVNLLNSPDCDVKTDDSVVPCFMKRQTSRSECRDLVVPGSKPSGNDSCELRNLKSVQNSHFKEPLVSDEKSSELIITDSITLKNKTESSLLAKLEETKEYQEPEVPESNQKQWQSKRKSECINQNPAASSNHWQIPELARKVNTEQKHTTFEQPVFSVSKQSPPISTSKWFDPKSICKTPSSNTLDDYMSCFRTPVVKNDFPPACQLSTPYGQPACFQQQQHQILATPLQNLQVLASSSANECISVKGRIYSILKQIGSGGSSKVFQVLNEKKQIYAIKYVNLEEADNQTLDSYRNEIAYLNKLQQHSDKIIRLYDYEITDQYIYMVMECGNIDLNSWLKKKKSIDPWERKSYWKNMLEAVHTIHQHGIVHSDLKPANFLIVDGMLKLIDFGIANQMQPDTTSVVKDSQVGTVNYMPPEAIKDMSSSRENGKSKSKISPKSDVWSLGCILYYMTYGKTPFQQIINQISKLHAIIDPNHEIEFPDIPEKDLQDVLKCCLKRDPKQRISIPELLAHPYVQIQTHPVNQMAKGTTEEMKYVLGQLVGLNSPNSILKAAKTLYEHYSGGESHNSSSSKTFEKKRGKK

Take “mCherry-tagged ARHGEF17 (ARHGEF17-mCherry), Q96PE2 1-2063”: the normalized cross-correlation (FCCS) amounted to 12.4%.

(Values after paper PMC4792069.)
